11 molecules from patent US20240270821A1, “GIP/GLP1/GCG TRI-RECEPTOR AGONISTS AND USES THEREOF” (priority 2023, published 2024) can be followed below.

Common to all, as to test: cell-based or functional assay
For assay [1], the target named is T1, human GIP receptor (human) (UniProt P48546).
T1 sequence (looked up): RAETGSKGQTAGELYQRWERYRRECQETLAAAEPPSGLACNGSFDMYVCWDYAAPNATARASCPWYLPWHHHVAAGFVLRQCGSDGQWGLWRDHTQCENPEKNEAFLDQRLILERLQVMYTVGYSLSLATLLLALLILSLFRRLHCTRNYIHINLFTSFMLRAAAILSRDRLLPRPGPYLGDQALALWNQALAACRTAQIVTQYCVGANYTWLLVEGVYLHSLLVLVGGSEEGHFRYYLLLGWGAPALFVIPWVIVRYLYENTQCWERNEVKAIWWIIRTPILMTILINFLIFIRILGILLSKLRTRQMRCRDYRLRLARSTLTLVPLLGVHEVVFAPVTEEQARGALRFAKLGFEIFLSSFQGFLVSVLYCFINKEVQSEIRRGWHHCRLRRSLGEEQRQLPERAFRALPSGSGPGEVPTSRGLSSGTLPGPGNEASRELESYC

The target of assay [2] is human glucagon receptor (human) (UniProt P47871).
human glucagon receptor (human), sequence (P47871 26-477): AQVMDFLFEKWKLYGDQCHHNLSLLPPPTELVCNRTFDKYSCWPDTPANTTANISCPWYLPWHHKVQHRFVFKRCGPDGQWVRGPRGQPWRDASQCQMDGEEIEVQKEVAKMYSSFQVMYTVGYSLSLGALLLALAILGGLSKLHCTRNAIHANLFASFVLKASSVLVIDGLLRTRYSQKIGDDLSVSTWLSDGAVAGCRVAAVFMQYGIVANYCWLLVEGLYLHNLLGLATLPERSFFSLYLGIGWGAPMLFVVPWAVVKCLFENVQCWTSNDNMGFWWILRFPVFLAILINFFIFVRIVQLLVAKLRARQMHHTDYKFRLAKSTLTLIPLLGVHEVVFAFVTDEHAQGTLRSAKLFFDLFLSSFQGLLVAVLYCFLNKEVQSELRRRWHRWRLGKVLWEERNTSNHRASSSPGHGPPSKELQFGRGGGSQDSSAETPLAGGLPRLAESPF
The target of assay [3] is hGLP-1R (Homo sapiens, UniProt P43220).
hGLP-1R, sequence (P43220 24-463): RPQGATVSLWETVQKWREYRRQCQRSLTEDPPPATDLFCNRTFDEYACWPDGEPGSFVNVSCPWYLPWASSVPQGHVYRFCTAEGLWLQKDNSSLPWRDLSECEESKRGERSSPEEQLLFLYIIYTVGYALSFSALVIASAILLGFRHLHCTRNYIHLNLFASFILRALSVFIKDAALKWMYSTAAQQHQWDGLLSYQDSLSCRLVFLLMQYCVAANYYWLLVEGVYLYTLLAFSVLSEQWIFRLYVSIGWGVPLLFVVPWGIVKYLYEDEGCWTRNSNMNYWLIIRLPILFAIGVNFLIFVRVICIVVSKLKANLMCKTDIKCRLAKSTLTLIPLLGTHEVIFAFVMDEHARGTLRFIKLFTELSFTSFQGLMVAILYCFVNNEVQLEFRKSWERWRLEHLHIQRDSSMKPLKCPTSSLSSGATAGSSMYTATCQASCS

B1: Example 530 (peptide)
chain: YXQGTXTSDXXIXLDXKAQXXFIEYLSEGGPSSGEPPPSGTE
modifications: synthetic construct; SITE 2: note = 2-Aminoisobutyric Acid; SITE 6: note = alpha-methyl-2-fluoro-L-phenylalanine; SITE 10: note = 3-(4-Pyridyl)-L-alanine; SITE 11: note = alpha-methyl-L-serine; SITE 13: note = alpha-methyl-leucine; SITE 16: note = L-ornithine; SITE 17: note = Lysine is chemically mo
In the case of B1, the Relative cAMP EC50 in assay [1] was 0.874 nM; in assay [2], 17.1 nM; in assay [3], 4.91 nM. Moreover, the values for the cAMP Rel EC50 (1% HSA) in assay [1], in assay [2] and in assay [3] were 63.7 nM, 1280 nM and 437 nM, respectively.

B2: Example 532 (peptide)
chain: YXQGTXTSDXXIXLDXKAQXXFIEYLLEGGPSSGEPPPSGTE
modifications: synthetic construct; SITE 2: note = 2-Aminoisobutyric Acid; SITE 6: note = alpha-methyl-2-fluoro-L-phenylalanine; SITE 10: note = 3-(4-Pyridyl)-L-alanine; SITE 11: note = alpha-methyl-L-serine; SITE 13: note = alpha-methyl-leucine; SITE 16: note = L-ornithine; SITE 17: note = Lysine is chemically mo
Consider B2, for which the Relative cAMP EC50 is 0.0159 nM in assay [1], 1.37 nM in assay [2] and 0.577 nM in assay [3]. Further, the cAMP Rel EC50 (1% HSA) is 1.49 nM in assay [1], 157 nM in assay [2] and 47.3 nM in assay [3].

B3: Example 531 (peptide)
chain: YXQGTXTSDXXILLDXKAQXXFIEYLIEGGPSSGEPPPSGTE
modifications: synthetic construct; SITE 2: note = 2-Aminoisobutyric Acid; SITE 6: note = alpha-methyl-2-fluoro-L-phenylalanine; SITE 10: note = 3-(4-Pyridyl)-L-alanine; SITE 11: note = alpha-methyl-L-serine; SITE 16: note = L-ornithine; SITE 17: note = Lysine is chemically modified through conjugation of the epsi
Consider B3, for which the Relative cAMP EC50 in assay [1] was 0.0694 nM; in assay [2], 3.79 nM; in assay [3], 0.356 nM. For the same molecule, the cAMP Rel EC50 (1% HSA) turned out to be 5.2 nM in assay [1], 465 nM in assay [2] and 37.8 nM in assay [3].

B4: Example 523 (peptide)
chain: YXQGTXTSDXXIXLDXKAQXXFIEYLIEGGPSSGEPPPSGTGE
modifications: synthetic construct; SITE 2: note = 2-Aminoisobutyric Acid; SITE 6: note = alpha-methyl-2-fluoro-L-phenylalanine; SITE 10: note = 3-(4-Pyridyl)-L-alanine; SITE 11: note = alpha-methyl-L-serine; SITE 13: note = alpha-methyl-leucine; SITE 16: note = L-ornithine; SITE 17: note = Lysine is chemically mo
For the molecule B4, the Relative cAMP EC50 was determined as 0.021 nM in assay [1], 3.79 nM in assay [2] and 0.482 nM in assay [3]. The results for the cAMP Rel EC50 (1% HSA) in assay [1], in assay [2] and in assay [3] were 0.869 nM, 234 nM and 27.1 nM, respectively.

B5: Example 524 (peptide)
chain: YXQGTXTSDXXIXLDXKAQXXFIEYLIEGGPSSGEPPPSGTGE
modifications: not fully specified; C-terminal amide; synthetic construct; SITE 2: note = 2-Aminoisobutyric Acid; SITE 6: note = alpha-methyl-2-fluoro-L-phenylalanine; SITE 10: note = 3-(4-Pyridyl)-L-alanine; SITE 11: note = alpha-methyl-L-serine; SITE 13: note = alpha-methyl-leucine; SITE 16: note = L-ornithine; SITE 17: note = Lysine is chemically mo
Take B5: the Relative cAMP EC50 in assay [1] was determined as 0.0266 nM; in assay [2], 5.11 nM; in assay [3], 0.487 nM. Besides, the cAMP Rel EC50 (1% HSA) in assay [1] was determined as 1.46 nM; in assay [2], 464 nM; in assay [3], 32.7 nM.

B6: Example 527 (peptide)
chain: YXQGTXTSDXXIXLDXKAQXNFIEXLQEGGPSSGEPPPEGTGE
modifications: synthetic construct; SITE 2: note = 2-Aminoisobutyric Acid; SITE 6: note = alpha-methyl-2-fluoro-L-phenylalanine; SITE 10: note = 3-(4-Pyridyl)-L-alanine; SITE 11: note = alpha-methyl-L-serine; SITE 13: note = alpha-methyl-leucine; SITE 16: note = L-ornithine; SITE 17: note = Lysine is chemically mo
For B6, the Relative cAMP EC50 is 0.0386 nM in assay [1], 6.99 nM in assay [2] and 0.446 nM in assay [3]. Besides, the cAMP Rel EC50 (1% HSA) in assay [1] turned out to be 2.6 nM; in assay [2], 580 nM; in assay [3], 26.8 nM.

B7: Example 529 (peptide)
chain: YXQGTXTSDXXIXLDXKAQXQFIEXLQEGGPSSGEPPPEGTGE
modifications: synthetic construct; SITE 2: note = 2-Aminoisobutyric Acid; SITE 6: note = alpha-methyl-2-fluoro-L-phenylalanine; SITE 10: note = 3-(4-Pyridyl)-L-alanine; SITE 11: note = alpha-methyl-L-serine; SITE 13: note = alpha-methyl-leucine; SITE 16: note = L-ornithine; SITE 17: note = Lysine is chemically mo
For the molecule B7, the Relative cAMP EC50 in assay [1] amounted to 0.0273 nM; in assay [2], 6.59 nM; in assay [3] it was 0.467 nM. For the same molecule, the cAMP Rel EC50 (1% HSA) in assay [1] was found to be 1.39 nM; in assay [2], 398 nM; in assay [3], 24.5 nM.

B8: Example 543 (peptide)
chain: YXQGTXTSDXXIXLDXKAQXXFIEXLTEGGPSSGEPPPSGTGE
modifications: synthetic construct; SITE 2: note = 2-Aminoisobutyric Acid; SITE 6: note = alpha-methyl-2-fluoro-L-phenylalanine; SITE 10: note = 3-(4-Pyridyl)-L-alanine; SITE 11: note = alpha-methyl-L-serine; SITE 13: note = alpha-methyl-leucine; SITE 16: note = L-ornithine; SITE 17: note = Lysine is chemically mo
Regarding B8, the Relative cAMP EC50 came to 0.0319 nM in assay [1], 4.56 nM in assay [2] and 0.41 nM in assay [3]. The cAMP Rel EC50 (1% HSA) is 1.88 nM in assay [1], 300 nM in assay [2] and 32 nM in assay [3].

B9: Example 505 (peptide)
chain: YXQGTXTSDXSIXLDXKAQXXFIEXLIEGGPSSGEPPPEGT
modifications: synthetic construct; SITE 2: note = 2-Aminoisobutyric Acid; SITE 6: note = alpha-methyl-2-fluoro-L-phenylalanine; SITE 10: note = 3-(4-Pyridyl)-L-alanine; SITE 13: note = alpha-methyl-leucine; SITE 16: note = L-ornithine; SITE 17: note = Lysine is chemically modified through conjugation of the epsil
As to B9, the Relative cAMP EC50 in assay [1] stood at 0.00707 nM; in assay [2], 0.445 nM; in assay [3], 0.205 nM. Besides, the cAMP Rel EC50 (1% HSA) in assay [1] was found to be 2.1 nM; in assay [2], 92 nM; in assay [3], 39 nM.

B10: Example 525 (peptide)
chain: YXQGTXTSDXXIXLDXKAQXNFIEXLQEGGPSSGEPPPEGT
modifications: synthetic construct; SITE 2: note = 2-Aminoisobutyric Acid; SITE 6: note = alpha-methyl-2-fluoro-L-phenylalanine; SITE 10: note = 3-(4-Pyridyl)-L-alanine; SITE 11: note = alpha-methyl-L-serine; SITE 13: note = alpha-methyl-leucine; SITE 16: note = L-ornithine; SITE 17: note = Lysine is chemically mo
For the molecule B10, the Relative cAMP EC50 in assay [1] was 0.0351 nM; in assay [2], 10 nM; in assay [3], 0.426 nM. Further, the cAMP Rel EC50 (1% HSA) in assay [1] was 2.07 nM; in assay [2] it was 460 nM; in assay [3], 20.2 nM.

B11: Example 495 (peptide)
chain: YXQGTXTSDXSIXLDKKAQXAFIEYLEEGGPSSGAPPPE
modifications: synthetic construct; SITE 2: note = 2-Aminoisobutyric Acid; SITE 6: note = alpha-methyl-2-fluoro-L-phenylalanine; SITE 10: note = 4-nitro-L-phenylalanine; SITE 13: note = alpha-methyl-leucine; SITE 17: note = Lysine is chemically modified through conjugation of the epsilon-amino group of the Lysine
B11: the Relative cAMP EC50, nM (0.1% casein) in assay [1] was 0.0361 nM; in assay [2], 1.75 nM; in assay [3] it was 0.274 nM. The figures for the cAMP Rel EC50 (receptor-expressing HEK-293 cells, 1% HSA) in assay [1], in assay [2] and in assay [3] were 5.74 nM, 205 nM and 53.8 nM, respectively.
